Patent US20230272029A1, “CO-AGONISTS AT GLP-1 AND GIP RECEPTORS SUITABLE FOR ORAL DELIVERY” (Novo Nordisk A/S, priority 2020, published 2023)
Starred links: 1 amine or outer side, 2 acyl side, 3 side chain; linkers in the order of their positions; H or OH if unused. Non-standard residues stand in square brackets, D forms with d. Groups on a side chain read outwards from the residue. No end group written: not given here. *: point of attachment. C20 diacid = O=C(O)CCCCCCCCCCCCCCCCCCC(=O)*; C18 diacid = O=C(O)CCCCCCCCCCCCCCCCC(=O)*; γGlu = O=C(O)[C@H](CCC(=O)[*:2])N[*:1]; εLys = N[C@@H](CCCCN[*:1])C(=O)[*:2]; Aib = CC(C)(N)C(=O)O

T1: human GIP receptor (human, UniProt P48546 22-466)
T1 sequence (looked up): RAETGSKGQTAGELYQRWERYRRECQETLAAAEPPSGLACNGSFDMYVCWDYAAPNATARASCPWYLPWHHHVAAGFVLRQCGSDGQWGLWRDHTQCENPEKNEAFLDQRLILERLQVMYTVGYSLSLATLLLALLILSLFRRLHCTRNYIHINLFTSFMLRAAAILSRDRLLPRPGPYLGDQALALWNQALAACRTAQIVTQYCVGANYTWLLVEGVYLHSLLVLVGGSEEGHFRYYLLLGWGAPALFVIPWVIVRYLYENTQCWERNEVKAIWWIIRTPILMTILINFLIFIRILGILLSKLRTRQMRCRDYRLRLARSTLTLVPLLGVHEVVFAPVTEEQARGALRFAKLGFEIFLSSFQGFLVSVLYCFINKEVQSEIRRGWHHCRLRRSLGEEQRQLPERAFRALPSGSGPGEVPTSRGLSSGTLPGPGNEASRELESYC


Legend:
human GLP-1 receptor = human GLP-1 receptor (human, UniProt P43220 24-463); assay: cell-based or functional assay
human GIP receptor = biological target: T1, human GIP receptor; assay: cell-based or functional assay

Row | Binder | hGLP-1R, CRE Luc 0% HSA EC50 (pM) (human GLP-1 receptor) | hGLP-1R, CRE Luc 1% HSA EC50 (pM) (human GLP-1 receptor) | hGIPR, CRE Luc 0% HSA EC50 (pM) (human GIP receptor) | hGIPR, CRE Luc 1% HSA EC50 (pM) (human GIP receptor)
1 | Y[Aib]EGTFTSDYSYYLEK([εLys-εLys-γGlu-C20 diacid])QAAQEFVNWLLAGGPSSGAPPPS-NH2 (N-terminus assumed; SMILES CC(C)C[C@H](NC(=O)[C@H](CC(C)C)NC(=O)[C@H](Cc1c[nH]c2ccccc12)NC(=O)[C@H](CC(N)=O)NC(=O)[C@@H](NC(=O)[C@H](Cc1ccccc1)NC(=O)[C@H](CCC(=O)O)NC(=O)[C@H](CCC(N)=O)NC(=O)[C@H](C)NC(=O)[C@H](C)NC(=O)[C@H](CCC(N)=O)NC(=O)[C@H](CCCCNC(=O)[C@@H](N)CCCCNC(=O)[C@@H](N)CCCCNC(=O)CC[C@H](NC(=O)CCCCCCCCCCCCCCCCCCC(=O)O)C(=O)O)NC(=O)[C@H](CCC(=O)O)NC(=O)[C@H](CC(C)C)NC(=O)[C@H](Cc1ccc(O)cc1)NC(=O)[C@H](Cc1ccc(O)cc1)NC(=O)[C@H](CO)NC(=O)[C@H](Cc1ccc(O)cc1)NC(=O)[C@H](CC(=O)O)NC(=O)[C@H](CO)NC(=O)[C@@H](NC(=O)[C@H](Cc1ccccc1)NC(=O)[C@@H](NC(=O)CNC(=O)[C@H](CCC(=O)O)NC(=O)C(C)(C)NC(=O)[C@@H](N)Cc1ccc(O)cc1)[C@@H](C)O)[C@@H](C)O)C(C)C)C(=O)N[C@@H](C)C(=O)NCC(=O)NCC(=O)N1CCC[C@H]1C(=O)N[C@@H](CO)C(=O)N[C@@H](CO)C(=O)NCC(=O)N[C@@H](C)C(=O)N1CCC[C@H]1C(=O)N1CCC[C@H]1C(=O)N1CCC[C@H]1C(=O)N[C@@H](CO)C(N)=O) [Compound No. 2] | 6 | 900 | 3.8 | 275
2 | Y[Aib]EGTFTSDYSIYLEK([εLys-εLys-γGlu-C18 diacid])QAAREFIEWLLAGGPSSGAPPPS-OH (N-terminus assumed; SMILES CC[C@H](C)[C@H](NC(=O)[C@H](Cc1ccccc1)NC(=O)[C@H](CCC(=O)O)NC(=O)[C@H](CCCNC(=N)N)NC(=O)[C@H](C)NC(=O)[C@H](C)NC(=O)[C@H](CCC(N)=O)NC(=O)[C@H](CCCCNC(=O)[C@@H](N)CCCCNC(=O)[C@@H](N)CCCCNC(=O)CC[C@H](NC(=O)CCCCCCCCCCCCCCCCC(=O)O)C(=O)O)NC(=O)[C@H](CCC(=O)O)NC(=O)[C@H](CC(C)C)NC(=O)[C@H](Cc1ccc(O)cc1)NC(=O)[C@@H](NC(=O)[C@H](CO)NC(=O)[C@H](Cc1ccc(O)cc1)NC(=O)[C@H](CC(=O)O)NC(=O)[C@H](CO)NC(=O)[C@@H](NC(=O)[C@H](Cc1ccccc1)NC(=O)[C@@H](NC(=O)CNC(=O)[C@H](CCC(=O)O)NC(=O)C(C)(C)NC(=O)[C@@H](N)Cc1ccc(O)cc1)[C@@H](C)O)[C@@H](C)O)[C@@H](C)CC)C(=O)N[C@@H](CCC(=O)O)C(=O)N[C@@H](Cc1c[nH]c2ccccc12)C(=O)N[C@@H](CC(C)C)C(=O)N[C@@H](CC(C)C)C(=O)N[C@@H](C)C(=O)NCC(=O)NCC(=O)N1CCC[C@H]1C(=O)N[C@@H](CO)C(=O)N[C@@H](CO)C(=O)NCC(=O)N[C@@H](C)C(=O)N1CCC[C@H]1C(=O)N1CCC[C@H]1C(=O)N1CCC[C@H]1C(=O)N[C@@H](CO)C(=O)O) [Compound No. 9] | 3.8 | 279 |  | 
3 | Y[Aib]EGTFTSDYSILLEK([εLys-εLys-γGlu-C18 diacid])QAAQEFINWLLAGGPSSGAPPPS-OH (N-terminus assumed; SMILES CC[C@H](C)[C@H](NC(=O)[C@H](Cc1ccccc1)NC(=O)[C@H](CCC(=O)O)NC(=O)[C@H](CCC(N)=O)NC(=O)[C@H](C)NC(=O)[C@H](C)NC(=O)[C@H](CCC(N)=O)NC(=O)[C@H](CCCCNC(=O)[C@@H](N)CCCCNC(=O)[C@@H](N)CCCCNC(=O)CC[C@H](NC(=O)CCCCCCCCCCCCCCCCC(=O)O)C(=O)O)NC(=O)[C@H](CCC(=O)O)NC(=O)[C@H](CC(C)C)NC(=O)[C@H](CC(C)C)NC(=O)[C@@H](NC(=O)[C@H](CO)NC(=O)[C@H](Cc1ccc(O)cc1)NC(=O)[C@H](CC(=O)O)NC(=O)[C@H](CO)NC(=O)[C@@H](NC(=O)[C@H](Cc1ccccc1)NC(=O)[C@@H](NC(=O)CNC(=O)[C@H](CCC(=O)O)NC(=O)C(C)(C)NC(=O)[C@@H](N)Cc1ccc(O)cc1)[C@@H](C)O)[C@@H](C)O)[C@@H](C)CC)C(=O)N[C@@H](CC(N)=O)C(=O)N[C@@H](Cc1c[nH]c2ccccc12)C(=O)N[C@@H](CC(C)C)C(=O)N[C@@H](CC(C)C)C(=O)N[C@@H](C)C(=O)NCC(=O)NCC(=O)N1CCC[C@H]1C(=O)N[C@@H](CO)C(=O)N[C@@H](CO)C(=O)NCC(=O)N[C@@H](C)C(=O)N1CCC[C@H]1C(=O)N1CCC[C@H]1C(=O)N1CCC[C@H]1C(=O)N[C@@H](CO)C(=O)O) [Compound No. 24] | 12.1 | 490 | 3.9 | 115
4 | Y[Aib]EGTFTSDYSILLEK([εLys-εLys-γGlu-C18 diacid])QAAREFIQWLLAGGPSSGAPPPS-OH (N-terminus assumed; SMILES CC[C@H](C)[C@H](NC(=O)[C@H](Cc1ccccc1)NC(=O)[C@H](CCC(=O)O)NC(=O)[C@H](CCCNC(=N)N)NC(=O)[C@H](C)NC(=O)[C@H](C)NC(=O)[C@H](CCC(N)=O)NC(=O)[C@H](CCCCNC(=O)[C@@H](N)CCCCNC(=O)[C@@H](N)CCCCNC(=O)CC[C@H](NC(=O)CCCCCCCCCCCCCCCCC(=O)O)C(=O)O)NC(=O)[C@H](CCC(=O)O)NC(=O)[C@H](CC(C)C)NC(=O)[C@H](CC(C)C)NC(=O)[C@@H](NC(=O)[C@H](CO)NC(=O)[C@H](Cc1ccc(O)cc1)NC(=O)[C@H](CC(=O)O)NC(=O)[C@H](CO)NC(=O)[C@@H](NC(=O)[C@H](Cc1ccccc1)NC(=O)[C@@H](NC(=O)CNC(=O)[C@H](CCC(=O)O)NC(=O)C(C)(C)NC(=O)[C@@H](N)Cc1ccc(O)cc1)[C@@H](C)O)[C@@H](C)O)[C@@H](C)CC)C(=O)N[C@@H](CCC(N)=O)C(=O)N[C@@H](Cc1c[nH]c2ccccc12)C(=O)N[C@@H](CC(C)C)C(=O)N[C@@H](CC(C)C)C(=O)N[C@@H](C)C(=O)NCC(=O)NCC(=O)N1CCC[C@H]1C(=O)N[C@@H](CO)C(=O)N[C@@H](CO)C(=O)NCC(=O)N[C@@H](C)C(=O)N1CCC[C@H]1C(=O)N1CCC[C@H]1C(=O)N1CCC[C@H]1C(=O)N[C@@H](CO)C(=O)O) [Compound No. 23] | 4.1 | 118 | 6.7 | 134
5 | Y[Aib]EGTFTSDYSILLEK([εLys-εLys-γGlu-C18 diacid])QAAREFVNWLLAGGPSSGAPPPS-OH (N-terminus assumed; SMILES CC[C@H](C)[C@H](NC(=O)[C@H](CO)NC(=O)[C@H](Cc1ccc(O)cc1)NC(=O)[C@H](CC(=O)O)NC(=O)[C@H](CO)NC(=O)[C@@H](NC(=O)[C@H](Cc1ccccc1)NC(=O)[C@@H](NC(=O)CNC(=O)[C@H](CCC(=O)O)NC(=O)C(C)(C)NC(=O)[C@@H](N)Cc1ccc(O)cc1)[C@@H](C)O)[C@@H](C)O)C(=O)N[C@@H](CC(C)C)C(=O)N[C@@H](CC(C)C)C(=O)N[C@@H](CCC(=O)O)C(=O)N[C@@H](CCCCNC(=O)[C@@H](N)CCCCNC(=O)[C@@H](N)CCCCNC(=O)CC[C@H](NC(=O)CCCCCCCCCCCCCCCCC(=O)O)C(=O)O)C(=O)N[C@@H](CCC(N)=O)C(=O)N[C@@H](C)C(=O)N[C@@H](C)C(=O)N[C@@H](CCCNC(=N)N)C(=O)N[C@@H](CCC(=O)O)C(=O)N[C@@H](Cc1ccccc1)C(=O)N[C@H](C(=O)N[C@@H](CC(N)=O)C(=O)N[C@@H](Cc1c[nH]c2ccccc12)C(=O)N[C@@H](CC(C)C)C(=O)N[C@@H](CC(C)C)C(=O)N[C@@H](C)C(=O)NCC(=O)NCC(=O)N1CCC[C@H]1C(=O)N[C@@H](CO)C(=O)N[C@@H](CO)C(=O)NCC(=O)N[C@@H](C)C(=O)N1CCC[C@H]1C(=O)N1CCC[C@H]1C(=O)N1CCC[C@H]1C(=O)N[C@@H](CO)C(=O)O)C(C)C) [Compound No. 22] | 2.8 | 170 | 6.2 | 169
